Holding throughout (assay): cell-based or functional assay
The target in assay [1] is human voltage-gated sodium channel Nav1.4 (human) (UniProt P35499).
Assay [2] concerns the target human voltage-gated sodium channel Nav1.5 (human) (UniProt Q14524).
Assay [3] has as its target human voltage-gated sodium channel Nav1.7 (human) (UniProt Q15858).
Assay [4] has as its target human voltage-gated sodium channel Nav1.3 (human) (UniProt Q9NY46).
Assay [5] deals with human Nav1.5 voltage-gated sodium channel (human) (UniProt Q14524).
The target of assay [6] is human Nav1.8 voltage-gated sodium channel (human) (UniProt Q9Y5Y9).
For assay [7], the target named is TTX-sensitive Nav channels in mouse DRG neurons.
Assay [8] deals with human Nav1.7 voltage-gated sodium channel (human) (UniProt Q15858).
human Nav1.7 voltage-gated sodium channel (human), sequence (Q15858 whole entry): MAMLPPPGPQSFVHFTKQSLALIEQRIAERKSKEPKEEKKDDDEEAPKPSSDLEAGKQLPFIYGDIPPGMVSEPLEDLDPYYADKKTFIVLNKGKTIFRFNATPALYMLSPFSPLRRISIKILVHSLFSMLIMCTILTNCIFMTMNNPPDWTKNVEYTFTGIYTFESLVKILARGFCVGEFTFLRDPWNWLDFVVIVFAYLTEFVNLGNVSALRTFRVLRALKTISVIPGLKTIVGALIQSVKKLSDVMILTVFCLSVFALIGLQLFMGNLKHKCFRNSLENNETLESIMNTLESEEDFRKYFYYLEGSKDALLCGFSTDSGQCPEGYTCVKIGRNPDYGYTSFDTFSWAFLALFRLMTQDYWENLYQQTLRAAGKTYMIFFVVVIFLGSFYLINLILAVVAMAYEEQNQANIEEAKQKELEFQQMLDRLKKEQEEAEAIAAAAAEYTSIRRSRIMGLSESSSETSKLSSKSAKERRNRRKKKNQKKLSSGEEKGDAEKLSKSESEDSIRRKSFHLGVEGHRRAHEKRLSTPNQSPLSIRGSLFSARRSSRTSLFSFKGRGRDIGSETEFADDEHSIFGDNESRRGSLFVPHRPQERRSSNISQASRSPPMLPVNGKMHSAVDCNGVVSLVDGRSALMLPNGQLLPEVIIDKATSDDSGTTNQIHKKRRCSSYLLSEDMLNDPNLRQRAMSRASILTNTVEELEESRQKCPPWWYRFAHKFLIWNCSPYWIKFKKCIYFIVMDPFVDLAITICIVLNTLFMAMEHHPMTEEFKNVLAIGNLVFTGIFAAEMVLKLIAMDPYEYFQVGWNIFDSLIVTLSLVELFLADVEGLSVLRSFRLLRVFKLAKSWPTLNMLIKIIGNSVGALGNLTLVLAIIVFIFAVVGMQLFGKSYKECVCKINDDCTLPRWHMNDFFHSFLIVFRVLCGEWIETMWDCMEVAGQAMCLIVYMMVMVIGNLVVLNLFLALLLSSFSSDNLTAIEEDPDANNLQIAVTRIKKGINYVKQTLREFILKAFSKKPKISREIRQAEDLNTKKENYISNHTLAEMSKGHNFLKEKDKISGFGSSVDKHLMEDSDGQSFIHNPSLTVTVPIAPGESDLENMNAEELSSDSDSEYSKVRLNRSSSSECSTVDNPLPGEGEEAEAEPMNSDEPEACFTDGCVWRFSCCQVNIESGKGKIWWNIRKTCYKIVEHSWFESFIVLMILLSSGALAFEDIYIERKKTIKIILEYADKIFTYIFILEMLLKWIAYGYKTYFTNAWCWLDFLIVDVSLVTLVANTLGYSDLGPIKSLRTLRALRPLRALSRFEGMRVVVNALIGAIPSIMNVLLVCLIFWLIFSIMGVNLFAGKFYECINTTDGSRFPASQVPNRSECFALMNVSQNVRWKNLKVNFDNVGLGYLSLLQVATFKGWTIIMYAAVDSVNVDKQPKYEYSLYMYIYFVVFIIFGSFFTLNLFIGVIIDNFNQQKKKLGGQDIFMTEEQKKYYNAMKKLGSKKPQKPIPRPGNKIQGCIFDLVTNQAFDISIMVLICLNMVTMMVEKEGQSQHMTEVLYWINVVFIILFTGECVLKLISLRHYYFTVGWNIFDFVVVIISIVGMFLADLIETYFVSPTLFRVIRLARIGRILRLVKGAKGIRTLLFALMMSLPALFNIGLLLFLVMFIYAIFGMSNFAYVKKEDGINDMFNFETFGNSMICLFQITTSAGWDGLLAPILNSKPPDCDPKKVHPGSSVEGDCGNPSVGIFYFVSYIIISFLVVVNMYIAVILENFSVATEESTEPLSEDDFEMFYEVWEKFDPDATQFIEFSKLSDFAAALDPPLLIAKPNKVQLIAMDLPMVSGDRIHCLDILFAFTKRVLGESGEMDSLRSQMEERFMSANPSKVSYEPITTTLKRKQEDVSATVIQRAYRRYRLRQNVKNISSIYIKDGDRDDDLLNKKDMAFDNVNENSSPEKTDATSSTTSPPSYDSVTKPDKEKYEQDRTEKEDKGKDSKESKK
In assay [9] the target is TTX-resistant Nav channels in mouse DRG neurons.
For assay [10], the target named is hNav1.7 channels in HEK293 cell (human) (UniProt Q15858).
hNav1.7 channels in HEK293 cell (human), sequence (Q15858 whole entry): as above

“And” between values parts separate entries of the source, which are not always exact repeats. Equal values may be shown once.

human voltage-gated sodium channel Nav1.4 (human), sequence (P35499 whole entry): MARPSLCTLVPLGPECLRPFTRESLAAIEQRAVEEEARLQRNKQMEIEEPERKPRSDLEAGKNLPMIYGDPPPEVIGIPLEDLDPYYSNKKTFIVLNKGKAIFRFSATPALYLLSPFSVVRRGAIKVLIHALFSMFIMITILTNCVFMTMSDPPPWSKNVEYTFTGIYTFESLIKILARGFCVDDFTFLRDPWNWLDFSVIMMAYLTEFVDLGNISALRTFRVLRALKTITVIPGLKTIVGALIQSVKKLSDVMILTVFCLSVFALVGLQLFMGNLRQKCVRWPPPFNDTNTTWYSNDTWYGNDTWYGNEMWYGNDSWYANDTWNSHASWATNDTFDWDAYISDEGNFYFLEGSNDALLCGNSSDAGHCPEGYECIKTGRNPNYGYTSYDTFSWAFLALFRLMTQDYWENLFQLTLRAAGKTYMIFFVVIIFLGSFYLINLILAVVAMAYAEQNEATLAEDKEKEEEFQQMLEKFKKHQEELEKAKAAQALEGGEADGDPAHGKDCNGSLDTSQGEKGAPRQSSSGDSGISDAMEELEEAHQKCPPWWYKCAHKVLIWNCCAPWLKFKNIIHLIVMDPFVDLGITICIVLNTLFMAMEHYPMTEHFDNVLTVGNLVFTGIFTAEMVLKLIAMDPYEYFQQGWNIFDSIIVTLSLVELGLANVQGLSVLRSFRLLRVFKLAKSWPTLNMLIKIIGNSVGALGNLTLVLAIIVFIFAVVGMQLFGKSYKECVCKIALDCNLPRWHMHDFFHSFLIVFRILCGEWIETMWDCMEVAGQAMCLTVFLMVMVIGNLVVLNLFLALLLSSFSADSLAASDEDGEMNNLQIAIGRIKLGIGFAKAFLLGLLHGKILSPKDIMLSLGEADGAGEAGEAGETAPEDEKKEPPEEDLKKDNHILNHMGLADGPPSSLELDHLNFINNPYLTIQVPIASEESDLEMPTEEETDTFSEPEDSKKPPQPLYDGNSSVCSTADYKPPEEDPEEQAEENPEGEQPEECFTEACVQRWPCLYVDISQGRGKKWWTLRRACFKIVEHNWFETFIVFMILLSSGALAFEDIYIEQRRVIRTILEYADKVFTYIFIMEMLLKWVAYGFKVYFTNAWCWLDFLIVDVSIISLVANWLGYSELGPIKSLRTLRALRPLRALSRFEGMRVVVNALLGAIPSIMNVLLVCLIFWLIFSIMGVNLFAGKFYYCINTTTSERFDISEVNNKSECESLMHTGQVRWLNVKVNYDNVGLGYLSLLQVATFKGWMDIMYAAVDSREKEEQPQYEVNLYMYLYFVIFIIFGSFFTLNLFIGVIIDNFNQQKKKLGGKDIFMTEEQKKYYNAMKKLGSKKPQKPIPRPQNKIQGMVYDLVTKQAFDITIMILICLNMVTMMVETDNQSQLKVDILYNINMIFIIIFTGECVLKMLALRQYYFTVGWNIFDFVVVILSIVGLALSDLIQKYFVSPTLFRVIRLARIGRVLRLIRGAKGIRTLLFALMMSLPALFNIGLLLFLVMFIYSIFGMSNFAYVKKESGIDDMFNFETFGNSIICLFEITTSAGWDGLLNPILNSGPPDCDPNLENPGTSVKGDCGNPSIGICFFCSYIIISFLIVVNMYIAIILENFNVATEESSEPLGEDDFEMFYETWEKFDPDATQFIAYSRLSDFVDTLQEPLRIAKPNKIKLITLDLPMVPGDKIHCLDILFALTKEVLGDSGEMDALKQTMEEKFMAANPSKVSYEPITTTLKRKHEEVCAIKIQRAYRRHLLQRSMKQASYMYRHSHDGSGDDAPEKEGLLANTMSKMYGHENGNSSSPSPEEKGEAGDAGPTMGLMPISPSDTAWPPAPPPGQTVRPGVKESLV
human voltage-gated sodium channel Nav1.7 (human), sequence (Q15858 whole entry): as the sequence (Q15858 whole entry) above

JzTx-45 (peptide): the IC50 (IonWorks Quattro) in assay [1] is 2400 nM; in assay [2], above 5000 nM; in assay [3], 84 nM; in assay [4] it was 1800 nM.

Turning to JzTx-46 (peptide), the IC50 (IonWorks Quattro) is above 5000 nM in assay [1], above 5000 nM in [2], 330 nM in assay [3] and 5000 nM in [4].

Regarding JzTx-V(1-29) (peptide), the IC50, IonWorks Quattro electrophysiology is 0.2 µM in [1], above 7 µM in assay [2] and 0.04 µM in assay [3]. The IC50 (IonWorks Quattro) in assay [2] is 3000 nM and 3500 nM; in assay [3], 5 nM and 6 nM; in assay [4] it was 80 nM and 100 nM. For the same substance, the WCPC Mean IC50, fully non-inactivated was 882 nM in assay [5]; 810 nM in [6]; 75 nM in [7]; 0.141 nM in assay [8]; above 1000 nM in [9]. Further, the WCPC Mean IC50, partially inactivated is 426 nM in [5]; 530 nM in assay [6]; 18 nM in assay [7]; 0.162 nM in [8]; above 1000 nM in assay [9].

Consider JzTx-V(1-29)-FreeAcid (peptide), for which the IC50 (IonWorks Quattro) in assay [1] is 610 nM; in assay [2], above 5000 nM; in assay [3], 170 nM; in assay [4], 780 nM. In assay [3], this substance displayed a PX hNav1.7 Tonic IC50 of 13.1 nM.

Take “[Phe6,Atz(2 kDa EtO-PEG*-[Phe6,Atz13*]GpTx-1(1-34)1)13]GpTx-1(1-34)”: the Nav1.7 WCPC IC50 in assay [10] is 0.58 nM.

These data come from patent US20160024159A1.
